Drawing on patent publication US20210324028A1 (Pfizer, published 2021), this text covers Kd for 25 molecules.

One assay concerns the target T1, human IL-15Rα (human, UniProt Q13261 31-205, limits assumed).
T1 construct: also called hIL-15Rα; IL-15 receptor alpha
Description: SPR, steady state. On the technique in general: In SPR one partner is held on a chip, and binding of the other changes the refractive index at the surface.

The next assay concerns the target T2, human IL-2Rβ (human, UniProt P14784 27-240, limits assumed).
T2 construct: also called hIL-2Rβ; IL-2 receptor beta
T2 sequence (looked up): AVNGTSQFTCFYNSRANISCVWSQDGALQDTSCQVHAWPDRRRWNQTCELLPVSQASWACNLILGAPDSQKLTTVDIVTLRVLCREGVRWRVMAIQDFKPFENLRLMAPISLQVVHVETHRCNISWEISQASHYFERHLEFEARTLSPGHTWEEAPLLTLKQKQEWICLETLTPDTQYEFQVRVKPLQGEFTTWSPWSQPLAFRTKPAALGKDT
Description: SPR, steady state.

T1 sequence (Q13261 31-205 limits assumed): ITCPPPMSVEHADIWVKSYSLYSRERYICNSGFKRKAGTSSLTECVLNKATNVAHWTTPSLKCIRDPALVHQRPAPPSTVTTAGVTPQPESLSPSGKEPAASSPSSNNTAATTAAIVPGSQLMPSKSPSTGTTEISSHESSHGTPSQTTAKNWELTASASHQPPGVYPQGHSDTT

B1: hIL-15 V49R/I68T (ligand)
chain: NWVNVISDLKKIEDLIQSMHIDATLYTESDVHPSCKVTAMKCFLLELQRISLESGDASIHDTVENLITLANNSLSSNGNVTESGCKECEELEEKNIKEFLQSFVHIVQMFINTGGGGSGHHHHHHHHGGGLNDIFEAQKIEWHE
Turning to B1, the Kd is 76.3 nM with human IL-15Rα and over 500 nM with human IL-2Rβ.

B2: hIL-15 V49R/K10Q (ligand)
chain: NWVNVISDLQKIEDLIQSMHIDATLYTESDVHPSCKVTAMKCFLLELQRISLESGDASIHDTVENLIILANNSLSSNGNVTESGCKECEELEEKNIKEFLQSFVHIVQMFINTGGGGSGHHHHHHHHGGGLNDIFEAQKIEWHE
Take B2: the Kd with human IL-15Rα is 100 nM; with human IL-2Rβ it was 250 nM.

B3: hIL-15 V49R/K10H (ligand)
chain: NWVNVISDLHKIEDLIQSMHIDATLYTESDVHPSCKVTAMKCFLLELQRISLESGDASIHDTVENLIILANNSLSSNGNVTESGCKECEELEEKNIKEFLQSFVHIVQMFINTGGGGSGHHHHHHHHGGGLNDIFEAQKIEWHE
Regarding B3, the dissociation constant (Kd) with human IL-15Rα is 85.6 nM; with human IL-2Rβ, 114 nM.

B4: hIL-15 V49R/I111S (ligand)
chain: NWVNVISDLKKIEDLIQSMHIDATLYTESDVHPSCKVTAMKCFLLELQRISLESGDASIHDTVENLIILANNSLSSNGNVTESGCKECEELEEKNIKEFLQSFVHIVQMFSNTGGGGSGHHHHHHHHGGGLNDIFEAQKIEWHE
For the molecule B4, the Kd was 223 nM with human IL-15Rα and over 500 nM with human IL-2Rβ.

B5: hIL-15 V49R/I111K (ligand)
chain: NWVNVISDLKKIEDLIQSMHIDATLYTESDVHPSCKVTAMKCFLLELQRISLESGDASIHDTVENLIILANNSLSSNGNVTESGCKECEELEEKNIKEFLQSFVHIVQMFKNTGGGGSGHHHHHHHHGGGLNDIFEAQKIEWHE
Regarding B5, the dissociation constant Kd is 199 nM with human IL-15Rα and 397 nM with human IL-2Rβ.

B6: hIL-15 V49R/I111A (ligand)
chain: NWVNVISDLKKIEDLIQSMHIDATLYTESDVHPSCKVTAMKCFLLELQRISLESGDASIHDTVENLIILANNSLSSNGNVTESGCKECEELEEKNIKEFLQSFVHIVQMFANTGGGGSGHHHHHHHHGGGLNDIFEAQKIEWHE
As for B6, the results for the Kd with human IL-15Rα and in the assay with human IL-2Rβ were 173 nM and 375 nM, respectively.

B7: hIL-15 V49R/K10S (ligand)
chain: NWVNVISDLSKIEDLIQSMHIDATLYTESDVHPSCKVTAMKCFLLELQRISLESGDASIHDTVENLIILANNSLSSNGNVTESGCKECEELEEKNIKEFLQSFVHIVQMFINTGGGGSGHHHHHHHHGGGLNDIFEAQKIEWHE
B7: the Kd was found to be 195 nM with human IL-15Rα and 496 nM with human IL-2Rβ.

B8: hIL-15 V49R/K10N (ligand)
chain: NWVNVISDLNKIEDLIQSMHIDATLYTESDVHPSCKVTAMKCFLLELQRISLESGDASIHDTVENLIILANNSLSSNGNVTESGCKECEELEEKNIKEFLQSFVHIVQMFINTGGGGSGHHHHHHHHGGGLNDIFEAQKIEWHE
As to B8, the dissociation constant (Kd) turned out to be 128 nM in the assay with human IL-15Rα and 230 nM with human IL-2Rβ.

B9: hIL-15 V49R/K10L (ligand)
chain: NWVNVISDLLKIEDLIQSMHIDATLYTESDVHPSCKVTAMKCFLLELQRISLESGDASIHDTVENLIILANNSLSSNGNVTESGCKECEELEEKNIKEFLQSFVHIVQMFINTGGGGSGHHHHHHHHGGGLNDIFEAQKIEWHE
B9: the Kd in the assay with human IL-15Rα is 124 nM; with human IL-2Rβ, 348 nM.

B10: hIL-15 V49R/K10G (ligand)
chain: NWVNVISDLGKIEDLIQSMHIDATLYTESDVHPSCKVTAMKCFLLELQRISLESGDASIHDTVENLIILANNSLSSNGNVTESGCKECEELEEKNIKEFLQSFVHIVQMFINTGGGGSGHHHHHHHHGGGLNDIFEAQKIEWHE
As for B10, the Kd is 209 nM in the assay with human IL-15Rα and over 500 nM with human IL-2Rβ.

B11: hIL-15 V49R/K11I (ligand)
chain: NWVNVISDLKIIEDLIQSMHIDATLYTESDVHPSCKVTAMKCFLLELQRISLESGDASIHDTVENLIILANNSLSSNGNVTESGCKECEELEEKNIKEFLQSFVHIVQMFINTGGGGSGHHHHHHHHGGGLNDIFEAQKIEWHE
In the case of B11, the Kd in the assay with human IL-15Rα turned out to be 95.8 nM; with human IL-2Rβ, 76 nM.

B12: hIL-15 V49R/I68V (ligand)
chain: NWVNVISDLKKIEDLIQSMHIDATLYTESDVHPSCKVTAMKCFLLELQRISLESGDASIHDTVENLIVLANNSLSSNGNVTESGCKECEELEEKNIKEFLQSFVHIVQMFINTGGGGSGHHHHHHHHGGGLNDIFEAQKIEWHE
As for B12, the equilibrium dissociation constant (Kd) in the assay with human IL-15Rα was 104 nM; with human IL-2Rβ, 296 nM.

B13: hIL-15 V49R/K11E (ligand)
chain: NWVNVISDLKEIEDLIQSMHIDATLYTESDVHPSCKVTAMKCFLLELQRISLESGDASIHDTVENLIILANNSLSSNGNVTESGCKECEELEEKNIKEFLQSFVHIVQMFINTGGGGSGHHHHHHHHGGGLNDIFEAQKIEWHE
Consider B13, for which the dissociation constant Kd with human IL-15Rα was determined as 159 nM; with human IL-2Rβ it was 160 nM.

B14: hIL-15 V49R/K11H (ligand)
chain: NWVNVISDLKHIEDLIQSMHIDATLYTESDVHPSCKVTAMKCFLLELQRISLESGDASIHDTVENLIILANNSLSSNGNVTESGCKECEELEEKNIKEFLQSFVHIVQMFINTGGGGSGHHHHHHHHGGGLNDIFEAQKIEWHE
For the molecule B14, the values for the Kd with human IL-15Rα and with human IL-2Rβ were 147 nM and 104 nM, respectively.

B15: hIL-15 V49R/I111D (ligand)
chain: NWVNVISDLKKIEDLIQSMHIDATLYTESDVHPSCKVTAMKCFLLELQRISLESGDASIHDTVENLIILANNSLSSNGNVTESGCKECEELEEKNIKEFLQSFVHIVQMFDNTGGGGSGHHHHHHHHGGGLNDIFEAQKIEWHE
Consider B15, for which the Kd with human IL-15Rα was 214 nM; with human IL-2Rβ it was over 500 nM.

B16: hIL-15 V49R/K11A (ligand)
chain: NWVNVISDLKAIEDLIQSMHIDATLYTESDVHPSCKVTAMKCFLLELQRISLESGDASIHDTVENLIILANNSLSSNGNVTESGCKECEELEEKNIKEFLQSFVHIVQMFINTGGGGSGHHHHHHHHGGGLNDIFEAQKIEWHE
With B16, the results for the Kd with human IL-15Rα and with human IL-2Rβ were 191 nM and 206 nM, respectively.

B17: hIL-15 V49R/K10R (ligand)
chain: NWVNVISDLRKIEDLIQSMHIDATLYTESDVHPSCKVTAMKCFLLELQRISLESGDASIHDTVENLIILANNSLSSNGNVTESGCKECEELEEKNIKEFLQSFVHIVQMFINTGGGGSGHHHHHHHHGGGLNDIFEAQKIEWHE
On to B17, for which the values for the Kd with human IL-15Rα and in the assay with human IL-2Rβ were 94.5 nM and 146 nM, respectively.

B18: hIL-15 V49R/K10A (ligand)
chain: NWVNVISDLAKIEDLIQSMHIDATLYTESDVHPSCKVTAMKCFLLELQRISLESGDASIHDTVENLIILANNSLSSNGNVTESGCKECEELEEKNIKEFLQSFVHIVQMFINTGGGGSGHHHHHHHHGGGLNDIFEAQKIEWHE
Consider B18, for which the Kd in the assay with human IL-15Rα stood at 150 nM; with human IL-2Rβ, 321 nM.

B19: hIL-15 V49R/I68Y (ligand)
chain: NWVNVISDLKKIEDLIQSMHIDATLYTESDVHPSCKVTAMKCFLLELQRISLESGDASIHDTVENLIYLANNSLSSNGNVTESGCKECEELEEKNIKEFLQSFVHIVQMFINTGGGGSGHHHHHHHHGGGLNDIFEAQKIEWHE
Turning to B19, the Kd with human IL-15Rα was 92.9 nM; in the assay with human IL-2Rβ, over 1000 nM.

B20: hIL-15 V49R/K11L (ligand)
chain: NWVNVISDLKLIEDLIQSMHIDATLYTESDVHPSCKVTAMKCFLLELQRISLESGDASIHDTVENLIILANNSLSSNGNVTESGCKECEELEEKNIKEFLQSFVHIVQMFINTGGGGSGHHHHHHHHGGGLNDIFEAQKIEWHE
Consider B20, for which the Kd with human IL-15Rα came to 142 nM; with human IL-2Rβ, 92.2 nM.

B21: hIL-15 V49R/K10E (ligand)
chain: NWVNVISDLEKIEDLIQSMHIDATLYTESDVHPSCKVTAMKCFLLELQRISLESGDASIHDTVENLIILANNSLSSNGNVTESGCKECEELEEKNIKEFLQSFVHIVQMFINTGGGGSGHHHHHHHHGGGLNDIFEAQKIEWHE
For B21, the dissociation constant Kd with human IL-15Rα worked out at 126 nM; in the assay with human IL-2Rβ, 360 nM.

B22: hIL-15 V49R/K10M (ligand)
chain: NWVNVISDLMKIEDLIQSMHIDATLYTESDVHPSCKVTAMKCFLLELQRISLESGDASIHDTVENLIILANNSLSSNGNVTESGCKECEELEEKNIKEFLQSFVHIVQMFINTGGGGSGHHHHHHHHGGGLNDIFEAQKIEWHE
For the molecule B22, the Kd in the assay with human IL-15Rα worked out at 122 nM; in the assay with human IL-2Rβ, 391 nM.

B23: hIL-15 V49R/K10D (ligand)
chain: NWVNVISDLDKIEDLIQSMHIDATLYTESDVHPSCKVTAMKCFLLELQRISLESGDASIHDTVENLIILANNSLSSNGNVTESGCKECEELEEKNIKEFLQSFVHIVQMFINTGGGGSGHHHHHHHHGGGLNDIFEAQKIEWHE
Regarding B23, the Kd in the assay with human IL-15Rα was 270 nM; with human IL-2Rβ, over 500 nM.

B24: hIL-15 V49R/K11D (ligand)
chain: NWVNVISDLKDIEDLIQSMHIDATLYTESDVHPSCKVTAMKCFLLELQRISLESGDASIHDTVENLIILANNSLSSNGNVTESGCKECEELEEKNIKEFLQSFVHIVQMFINTGGGGSGHHHHHHHHGGGLNDIFEAQKIEWHE
Regarding B24, the figures for the dissociation constant Kd with human IL-15Rα and in the assay with human IL-2Rβ were 242 nM and over 500 nM, respectively.

B25: hIL-15 V49R/K10W (ligand)
chain: NWVNVISDLWKIEDLIQSMHIDATLYTESDVHPSCKVTAMKCFLLELQRISLESGDASIHDTVENLIILANNSLSSNGNVTESGCKECEELEEKNIKEFLQSFVHIVQMFINTGGGGSGHHHHHHHHGGGLNDIFEAQKIEWHE
Regarding B25, the dissociation constant Kd with human IL-15Rα came to 101 nM; in the assay with human IL-2Rβ, 185 nM.

By Kd is commonly meant the equilibrium constant for the complex coming apart. Read a high Kd as a looser complex.
